Assay results taken from article PMC4827055.

Molecular target: human Toll-like receptor 5 (TLR5) expressed on HEK293 cells (human) (UniProt O60602)
Chain of UniProt O60602 (O60602 21-858): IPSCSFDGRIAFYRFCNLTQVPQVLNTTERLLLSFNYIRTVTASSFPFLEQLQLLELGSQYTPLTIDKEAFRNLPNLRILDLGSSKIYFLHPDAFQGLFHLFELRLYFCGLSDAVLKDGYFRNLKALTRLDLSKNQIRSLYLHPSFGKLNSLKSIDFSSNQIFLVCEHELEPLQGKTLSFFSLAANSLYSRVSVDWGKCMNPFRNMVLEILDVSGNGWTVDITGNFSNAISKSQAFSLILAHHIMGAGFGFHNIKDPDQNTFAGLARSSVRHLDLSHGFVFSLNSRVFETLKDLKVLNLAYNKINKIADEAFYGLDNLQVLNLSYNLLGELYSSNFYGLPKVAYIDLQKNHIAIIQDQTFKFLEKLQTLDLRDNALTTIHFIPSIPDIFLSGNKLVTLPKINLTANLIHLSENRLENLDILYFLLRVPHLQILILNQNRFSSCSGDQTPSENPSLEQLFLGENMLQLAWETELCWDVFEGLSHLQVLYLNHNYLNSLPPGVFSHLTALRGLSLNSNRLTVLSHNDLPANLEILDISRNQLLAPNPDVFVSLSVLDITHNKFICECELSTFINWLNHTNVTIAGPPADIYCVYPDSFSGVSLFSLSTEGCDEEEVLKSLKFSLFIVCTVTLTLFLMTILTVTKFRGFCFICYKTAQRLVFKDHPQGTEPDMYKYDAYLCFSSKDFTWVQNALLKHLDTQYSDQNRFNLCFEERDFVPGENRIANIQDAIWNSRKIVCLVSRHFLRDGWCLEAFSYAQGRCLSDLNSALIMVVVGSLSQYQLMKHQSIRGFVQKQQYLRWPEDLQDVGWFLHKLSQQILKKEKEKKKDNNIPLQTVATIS

Substance | EC50 (half maximal induction) of NF-κB luciferase reporter in HEK293/hTLR5 cells, 24 hr stimulation [nM]
recombinant flagellin (rFliC) from Salmonella enterica serovar Typhimurium (from UniProt P06179 1-495) (natural protein) | 0.0067
recombinant flagellin-E7m fusion protein rFliCE7m (E7m fused at the C-terminus of flagellin) (from UniProt P06179 1-495) | 0.0237
